Columns and labels:
Assay type in all cases: biochemical, B. amyloliquefaciens
[1] = substrate: C[C@H](NC(=O)CCC(=O)O)C(=O)N[C@@H](C)C(=O)N1CCC[C@H]1C(=O)N[C@@H](CCC(N)=O)C(=O)Nc1ccc([N+](=O)[O-])cc1; experiment: Kinetics of p-nitroanilide substrate hydrolysis, S156; conditions: other: Table XIV, 156 Ser / 166 Gly; value in parentheses; synthetic substrate with label as P-1 amino acid; 37.0 °C
Description: (§1) Wild-type subtilisin was purified from B. subtilis culture supernatants expressing the B. amyloliquefaciens subtilisin gene (Wells, J.A., et al. (1983) Nucleic Acids Res. 11, 7911-7925) as previously described (Estell, D.A., et al. (1985) J. Biol. Chem. 260, 6518-6521). Details of the synthesis of tetrapeptide substrates having the form succinyl-L-AlaL-AlaL-ProL-[X]-p-nitroanilide (where X is the P1 amino acid) are described by DelMar, E.G., et al. (1979) Anal. Biochem. 99, 316-320. Kinetic parameters, Km(M) and kcat-(s-^1) were measured using a modified progress curve analysis (Estell, D.A., et al. (1985) J. Biol. Chem. 260, 6518-6521). Briefly, plots of rate versus product concentration were fit to the differential form of the rate equation using a non-linear regression algorithm. Errors in kcat and Km for all values reported are less than five percent. The various substrates in Table VIII are ranged in order of decreasing hydrophobicity. Nozaki, Y. (1971), J. Biol. Chem. 246, 2211-2217; Tanford C. (1978) Science 200, 1012).
(§2) Construction of position 156 single mutants were prepared by ligation of the three fragments (1-3) indicated at the bottom of Figure 21. Fragment 3, containing the carboxy-terminal portion of the subtilisin gene including the wild type position 166 codon, was isolated as a 610 bp Sacl-BamHI fragment. Fragment 1 contained the vector sequences, as well as the amino-terminal sequences of the subtilisin gene through codon 151. To produce fragment 1, a unique Kpnl site at codon 152 was introduced into the wild type subtilisin sequence from pS4.5. Site-directed mutagenesis in M13 employed a primer having the sequence 5'-TA-GTC-GTT-GCG-GTA-CCC-GGT-AAC-GAA-3' to produce the mutation. Enrichment for the mutant sequence was accomplished by restriction with Kpnl, purification and self ligation. The mutant sequence containing the Kpnl site was confirmed by direct plasmid sequencing to give pV152. pV152 (-1 µg) was digested with Kpnl and treated with 2 units of DNA polymerase I large fragment (Klenow fragment from Boeringer-Mannheim) plus 50 µM deoxynucleotide triphosphates at 37°C for 30 min. This created a blunt end that terminated with codon 151. The DNA was extracted with 1:1 volumes phenol and CHC13 and DNA in the aqueous phase was precipitated by addition of 0.1 volumes 5M ammonium acetate and two volumes ethanol. After centrifugation and washing the DNA pellet with 70% ethanol, the DNA was lyophilized. DNA was digested with BamHl and the 4.6kb piece (fragment 1) was purified by acrylamide gel electrophoresis followed by electroelution. […] The top strand was synthesized to contain a glutamine codon, and the complementary bottom strand coded for serine at 156. Ligation of heterophosphorylated cassettes leads to a large and favorable bias for the phosphorylated over the non-phosphorylated oligonucleotide sequence in the final segrated plasmid product. Therefore, to obtain Q156 the top strand was phosphorylated, and annealed to the non-phosphorylated bottom strand prior to ligation. Similarly, to obtain S156 the bottom strand was phosphorylated and annealed to the non-phosphorylated top strand. Mutant sequences were isolated after ligation and transformation, and were confirmed by restriction analysis and DNA sequencing as before. To express variant subtilisins, plasmids were transformed into a subtilisin-neutral protease deletion mutant of B. subtilis, BG2036, as previously described. Cultures were fermented in shake flasks for 24 h at 37 ° C in LB media containing […] chloramphenicol and subtilisin was purified from culture supernatants as described. Purity of subtilisin was greater than 95% as judged by SDS PAGE.
(§3) These mutant plasmids designated pS156 and pQ156 and mutant subtilisins designated S156 and Q156 were analyzed with the above synthetic substrates where P-1 comprised the amino acids Glu, Gln, Met and Lys. The results of this analyses are presented in Example 9. […]

[2] = substrate: CSCC[C@H](NC(=O)[C@@H]1CCCN1C(=O)[C@H](C)NC(=O)[C@H](C)NC(=O)CCC(=O)O)C(=O)Nc1ccc([N+](=O)[O-])cc1; experiment: as above; conditions: other: Table XIV, 156 Ser / 166 Gly; value in parentheses; synthetic substrate with label as P-1 amino acid; 37.0 °C
Description: as §1, §2, §3

[3] = substrate: C[C@H](NC(=O)CCC(=O)O)C(=O)N[C@@H](C)C(=O)N1CCC[C@H]1C(=O)N[C@@H](Cc1ccccc1)C(=O)Nc1ccc([N+](=O)[O-])cc1; experiment: as above; conditions: other: Table XIII, S156; synthetic substrate with label as P-1 residue; 37.0 °C
Description: as §1, §2, §3

[4] = substrate: C[C@H](NC(=O)CCC(=O)O)C(=O)N[C@@H](C)C(=O)N1CCC[C@H]1C(=O)N[C@@H](CCC(=O)O)C(=O)Nc1ccc([N+](=O)[O-])cc1; experiment: as above; conditions: 37.0 °C
Description: as §1, §2, §3

[5] = substrate: C[C@H](NC(=O)CCC(=O)O)C(=O)N[C@@H](C)C(=O)N1CCC[C@H]1C(=O)N[C@@H](CCCCN)C(=O)Nc1ccc([N+](=O)[O-])cc1; experiment: as above; conditions: other: Table XIV, 156 Ser / 166 Gly; value in parentheses; synthetic substrate with label as P-1 amino acid; 37.0 °C
Description: as §1, §2, §3

[6] = substrate: C[C@H](NC(=O)CCC(=O)O)C(=O)N[C@@H](C)C(=O)N1CCC[C@H]1C(=O)N[C@@H](CCC(N)=O)C(=O)Nc1ccc([N+](=O)[O-])cc1; experiment: Kinetics of p-nitroanilide substrate hydrolysis, Q156; conditions: other: Table XIV, 156 Gln / 166 Gly; value in parentheses; synthetic substrate with label as P-1 amino acid; 37.0 °C
Description: as §1, §2, §3

[7] = substrate: CSCC[C@H](NC(=O)[C@@H]1CCCN1C(=O)[C@H](C)NC(=O)[C@H](C)NC(=O)CCC(=O)O)C(=O)Nc1ccc([N+](=O)[O-])cc1; experiment: as above; conditions: other: Table XIV, 156 Gln / 166 Gly; value in parentheses; synthetic substrate with label as P-1 amino acid; 37.0 °C
Description: as §1, §2, §3

[8] = substrate: C[C@H](NC(=O)CCC(=O)O)C(=O)N[C@@H](C)C(=O)N1CCC[C@H]1C(=O)N[C@@H](Cc1ccccc1)C(=O)Nc1ccc([N+](=O)[O-])cc1; experiment: as above; conditions: other: Table XIII, enzyme E156; synthetic substrate with label as P-1 residue; 37.0 °C
Description: as §1, §2, §3

[9] = substrate: C[C@H](NC(=O)CCC(=O)O)C(=O)N[C@@H](C)C(=O)N1CCC[C@H]1C(=O)N[C@@H](CCC(=O)O)C(=O)Nc1ccc([N+](=O)[O-])cc1; experiment: as above; conditions: 37.0 °C
Description: as §1, §2, §3

[10] = substrate: C[C@H](NC(=O)CCC(=O)O)C(=O)N[C@@H](C)C(=O)N1CCC[C@H]1C(=O)N[C@@H](CCCCN)C(=O)Nc1ccc([N+](=O)[O-])cc1; experiment: as above; conditions: other: Table XIV, 156 Gln / 166 Gly; value in parentheses; synthetic substrate with label as P-1 amino acid; 37.0 °C
Description: as §1, §2, §3

[11] = substrate: C[C@H](NC(=O)CCC(=O)O)C(=O)N[C@@H](C)C(=O)N1CCC[C@H]1C(=O)N[C@@H](CCC(N)=O)C(=O)Nc1ccc([N+](=O)[O-])cc1; experiment: Kinetics of p-nitroanilide substrate hydrolysis, R166; conditions: other: Table XIV, 156 Glu / 166 Arg; value in parentheses; synthetic substrate with label as P-1 amino acid
Description: as §1
(§4) The construction of subtilisin mutants containing the substitution of the ionic amino acids Asp, Asn, Gln, Lys and Ang are disclosed in EPO Publication No. 0130756. The present example describes the construction of the mutant subtilisin containing Glu at position 166 (E166) and presents substrate specificity data on these mutants. Further data on position 166 and 156 single and double mutants is presented infra.
(§5) Each of these mutants was analyzed with the tetrapeptide substrates, succinyl-L-AlaL-AlaProL-X-p-nitroanilide, where X was Phe, Ala and Glu.

[12] = substrate: CSCC[C@H](NC(=O)[C@@H]1CCCN1C(=O)[C@H](C)NC(=O)[C@H](C)NC(=O)CCC(=O)O)C(=O)Nc1ccc([N+](=O)[O-])cc1; experiment: as above; conditions: other: Table XIV, 156 Glu / 166 Arg; value in parentheses; synthetic substrate with label as P-1 amino acid
Description: as §1, §4, §5

[13] = substrate: C[C@H](NC(=O)CCC(=O)O)C(=O)N[C@@H](C)C(=O)N1CCC[C@H]1C(=O)N[C@@H](CCC(=O)O)C(=O)Nc1ccc([N+](=O)[O-])cc1; experiment: as above; conditions: other: Table XIV, 156 Glu / 166 Arg; value in parentheses; synthetic substrate with label as P-1 amino acid
Description: as §1, §4, §5

[14] = substrate: C[C@H](NC(=O)CCC(=O)O)C(=O)N[C@@H](C)C(=O)N1CCC[C@H]1C(=O)N[C@@H](CCCCN)C(=O)Nc1ccc([N+](=O)[O-])cc1; experiment: as above; conditions: other: Table XIV, 156 Glu / 166 Arg; value in parentheses; synthetic substrate with label as P-1 amino acid
Description: as §1, §4, §5

[15] = other: Table XIII, S156, synthetic substrate with label as P-1 residue
[16] = other: Table XIII, enzyme E156, synthetic substrate with label as P-1 residue

B1: B. amyloliquefaciens subtilisin variant S156 (Glu156 to Ser) (Bacillus amyloliquefaciens; E263S) (protein)
chain: AQSVPYGVSQIKAPALHSQGYTGSNVKVAVIDSGIDSSHPDLKVAGGASMVPSETNPFQDNNSHGTHVAGTVAALNNSIGVLGVAPSASLYAVKVLGADGSGQYSWIINGIEWAIANNMDVINMSLGGPSGSAALKAAVDKAVASGVVVVAAAGNSGTSGSSSTVGYPGKYPSVIAVGAVDSSNQRASFSSVGPELDVMAPGVSIQSTLPGNKYGAYNGTSMASPHVAGAAALILSKHPNWTNTQVRSSLENTTTKLGDSFYYGKGLINVQAAAQ
notes: at various amino acid residues within the mature form of the subtilisin molecule; made in house; host or cells: Bacillus subtilis BG2036
[1]
  Km: 209 µM
[2]
  Km: 28.2 µM
[3]
  Km: 47 µM
  kcat: 34.00 s-^1
  kcat/Km: 730000 M⁻¹ s⁻¹
[4]; [15]
  Km: 1800 µM
  kcat: 0.40 s-^1
[4]; other: Table XIV, 156 Ser / 166 Gly, value in parentheses, synthetic substrate with label as P-1 amino acid
  Km: 1860 µM
[5]
  Km: 1820 µM

B2: B. amyloliquefaciens subtilisin variant Q156 (Glu156 to Gln) (Bacillus amyloliquefaciens; E263Q) (protein)
chain: AQSVPYGVSQIKAPALHSQGYTGSNVKVAVIDSGIDSSHPDLKVAGGASMVPSETNPFQDNNSHGTHVAGTVAALNNSIGVLGVAPSASLYAVKVLGADGSGQYSWIINGIEWAIANNMDVINMSLGGPSGSAALKAAVDKAVASGVVVVAAAGNQGTSGSSSTVGYPGKYPSVIAVGAVDSSNQRASFSSVGPELDVMAPGVSIQSTLPGNKYGAYNGTSMASPHVAGAAALILSKHPNWTNTQVRSSLENTTTKLGDSFYYGKGLINVQAAAQ
notes: as for B1
[6]
  Km: 155 µM
[7]
  Km: 24.5 µM
[8]
  Km: 45 µM
  kcat: 48.00 s-^1
  kcat/Km: 1.1e+06 M⁻¹ s⁻¹
[9]; [16]
  Km: 3300 µM
  kcat: 0.90 s-^1
  kcat/Km: 270 M⁻¹ s⁻¹
[9]; other: Table XIV, 156 Gln / 166 Gly, value in parentheses, synthetic substrate with label as P-1 amino acid
  Km: 3310 µM
[10]
  Km: 1510 µM

B3: B. amyloliquefaciens subtilisin variant R166 (Gly166 to Arg) (Bacillus amyloliquefaciens; G273R) (protein)
chain: AQSVPYGVSQIKAPALHSQGYTGSNVKVAVIDSGIDSSHPDLKVAGGASMVPSETNPFQDNNSHGTHVAGTVAALNNSIGVLGVAPSASLYAVKVLGADGSGQYSWIINGIEWAIANNMDVINMSLGGPSGSAALKAAVDKAVASGVVVVAAAGNEGTSGSSSTVRYPGKYPSVIAVGAVDSSNQRASFSSVGPELDVMAPGVSIQSTLPGNKYGAYNGTSMASPHVAGAAALILSKHPNWTNTQVRSSLENTTTKLGDSFYYGKGLINVQAAAQ
notes: as for B1
[11]
  Km: 316 µM
[12]
  Km: 60.3 µM
[13]
  Km: 501 µM
[14]
  Km: 1580 µM
